The results in this text go back to publication PMC11117022 (Advanced Healthcare Materials, 2022).

Data set [1] deals with the molecule itself. Nature of the data set: SEC. For orientation: In gel filtration, larger molecules generally elute earlier.
Data set [2] deals with the molecule itself. Nature of the data set: SEC. This is another data set of the same source.

Like-named read-outs stand apart in the source and are kept apart here.

B1: mouse SIINFEKL‐STINGΔTM (other, chicken | mouse)
chain: GLEQLESIINFEKLTEWTSSLTPAEVSAVCEEKKLNVAHGLAWSYYIGYLRLILPGLQARIRMFNQLHNNMLSGAGSRRLYILFPLDCGVPDNLSVVDPNIRFRDMLPQQNIDRAGIKNRVYSNSVYEILENGQPAGVCILEYATPLQTLFAMSQDAKAGFSREDRLEQAKLFCRTLEEILEDVPESRNNCRLIVYQEPTDGNSFSLSQEVLRHIRQEEKEEVTMNAPMTSVAPPPSVLSQEPRLLISGMDQPLPLRTDLI
As for B1, the stoichiometry N – broadly, the number of molecules, sites or subunits per partner or assembly – in the data set “SEC [1]” worked out at 2; in “SEC [2]” it was 4.
